Source: US20060210570A1 (Genentech, published 2006)

B1: sHAI-1B(K401A) (other, human, UniProt O43278 36-465, looked up)
chain: GPPPAPPGLPAGADCLNSFTAGVPGFVLDTNASVSNGATFLESPTVRRGWDCVRACCTTQNCNLALVELQPDRGEDAIAACFLINCLYEQNFVCKFAPREGFINYLTREVYRSYRQLRTQGFGGSGIPKAWAGIDLKVQPQEPLVLKDVENTDWRLLRGDTDVRVERKDPNQVELWGLKEGTYLFQLTVTSSDHPEDTANVTVTVLSTKQTEDYCLASNKVGRCRGSFPRWYYDPTEQICKSFVYGGCLGNKNNYLREEECILACRGVQGGPLRGSSGAQATFPQGPSMERRHPVCSGTCQPTQFRCSNGCCIDSFLECDDTPNCPDASDEAACEKYTSGFDELQRIHFPSDKGHCVDLPDTGLCAESIPRWYYNPFSEHCARFTYGGCYGNKNNFEEEQQCLESCRGISKKDVFGLRREIPIPSTGSVE
B2: prostasin (recombinant human, soluble, active two-chain form purified from conditioned medium of CHO cells transfected with full-length prostasin) (enzyme)
chain: not shown
notes: also called purified prostasin; soluble prostasin
B3: sHAI-1B(R260A) (other, human, UniProt O43278 36-465, looked up)
chain: GPPPAPPGLPAGADCLNSFTAGVPGFVLDTNASVSNGATFLESPTVRRGWDCVRACCTTQNCNLALVELQPDRGEDAIAACFLINCLYEQNFVCKFAPREGFINYLTREVYRSYRQLRTQGFGGSGIPKAWAGIDLKVQPQEPLVLKDVENTDWRLLRGDTDVRVERKDPNQVELWGLKEGTYLFQLTVTSSDHPEDTANVTVTVLSTKQTEDYCLASNKVGRCAGSFPRWYYDPTEQICKSFVYGGCLGNKNNYLREEECILACRGVQGGPLRGSSGAQATFPQGPSMERRHPVCSGTCQPTQFRCSNGCCIDSFLECDDTPNCPDASDEAACEKYTSGFDELQRIHFPSDKGHCVDLPDTGLCKESIPRWYYNPFSEHCARFTYGGCYGNKNNFEEEQQCLESCRGISKKDVFGLRREIPIPSTGSVE

Key:
[1] = target: B2; assay: cell-based or functional assay
[2] = target: B3; assay: incubation at 37 C, SDS-PAGE and immunoblot with anti-HAI-1B polyclonal antibody
Method: (§1) FIG. 2. […] Prostasin of indicated concentration was incubated with 20 nM wildtype sHAI-1B (A) or mutant sHAI-1B (B) at 37° C. for 0.5 or 2 h. The reactions were stopped by addition of SDS sample buffer with DTT. 30 μl of each sample was boiled or not boiled (as indicated) followed by immunoblotting analysis using anti-HAI-1B polyclonal antibody.
(§2) Prostasin was incubated with sHAI-1B comprising the entire extracellular domain of HAI-1B (Kirchhofer, Peek et al. 2003) at different molar ratios (FIG.2A).

[3] = target: B1; assay: prostasin incubated with 20 nM mutant sHAI-1B, immunoblot (FIG. 2B)
Method: as §1, §2

[4] = target: aprotinin (UniProt P00974 36-93); assay: affinity chromatography of prostasin on immobilised aprotinin
[5] = target: B2; assay: cell-based or functional assay; remark: listed apart in the source

| IC50 (nM), inhibition of prostasin amidolytic activity towards S2765 [1] | binding result [2] | binding result [3] | binding result [4] | fold less potent than wildtype sHAI-1B in the prostasin inhibition assay [5] | inhibitory activity of KD2 relative to KD1 in prostasin enzymatic assays [5] | Binder |
| --- | --- | --- | --- | --- | --- | --- |
| 75.3 nM | – | – | – | – | – | B1 |
| – | no binding | binds | binds | – | – | B2 |
| > 1000 nM | – | – | – | ≥ 18 fold | < 6% | B3 |
